HEK293 (S/N), MFI of antibody over wells with no antibody data for two substances are collected here from patent publication US20250171520A1.

The experiment addresses human CD63 (human) (UniProt P08962). The experiment is described as follows: flow cytometry, HEK293 cells endogenously expressing human CD63.

human CD63 (human), sequence (P08962 2-238 limits assumed): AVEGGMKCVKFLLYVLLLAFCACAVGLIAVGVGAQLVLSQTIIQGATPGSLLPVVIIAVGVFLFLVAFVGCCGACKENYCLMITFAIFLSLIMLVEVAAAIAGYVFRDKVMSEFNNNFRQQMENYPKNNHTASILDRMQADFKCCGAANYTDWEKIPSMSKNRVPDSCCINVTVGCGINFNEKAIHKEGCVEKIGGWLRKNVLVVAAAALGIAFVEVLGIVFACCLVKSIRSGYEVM

Isotype Control 1 (antibody) gave an HEK293 (S/N), MFI of antibody over wells with no antibody of 1.4.
The figure for Isotype Control 2 (antibody) is 1.5.
